The text below walks through data of paper PMC6602974 (2019).

First the molecules themselves.
B1: DH727.2 monoclonal antibody (IgG1) (antibody, V domains shown)
VH: QVQLVQSGAEVKKPGASVKLSCKASGNTFSIYGISWVRQAPGQGLEWMGGIIPPAGLTNYVQRFQGRVTITADTSTTTVYMELSSLTSEDTAVYYCAIRIGRGFDYWGQGVLVTVSS
VL: DIVMTQSPLSLPVTPGETASISCRSSQSLLDSEDGNTYLEWYLQKPGQSPQALIYEASNRASGVPDRFSGSGSDTDFTLKISRVEAEDVGIYYCMQTIEYPFTFGPGTKVDIK
B2: DH753 monoclonal antibody (IgG1) (antibody, V domains shown)
VH: EVHLVESGGGLVQPGGSLRLSCEVSGLTFSNSWMSWVRQAPGKGLEWVGFIKTKADGGTAAYAESVKGRFTISRDDSKNTVFLQMKSLKTEDTAVYYCQGAVVISHEYIEIWGQGALVTVSS
VL: QSVLTQPPSASEAARKSVTISCSGGSSNIGDDSVSWYQQVPGTAPKLLIYYNDRRASGVSDRFSGSKSGTSASLAINGLQSEDEADYYCAAWDDSLSAYIFGSGTRLTVL
B3: CH505 transmitted founder gp120 (domain or fragment)
chain: not shown

Experiment [1] concerns the target B3. The experiment can be described thus: SPR.
Another experiment has as its target DH796.1. The experiment can be described thus: SPR. In general terms: SPR reads the build-up and loss of mass on a sensor chip optically.

A word on the Kd: it is the concentration at which binding is half-saturated. Read a low Kd as a tighter complex.

B1 showed a Kd in experiment [1] of 10.9 nM. In the case of B2, in experiment [1], the Kd came out at 1.2 nM.

In turn, B3 returned a Kd with DH796.1 of 253 nM.
